Measured values taken from article PMC8139589, “A flexible multiplexed immunosensor for point-of-care in situ wound monitoring”.

Key:
TNF-alpha = TNF-alpha (human, UniProt P01375 77-233); assay: electrochemical aptasensor (SWV); serum; 0-2 ng/ml; Serum as wound-exudate mimic; about 30 min incubation to equilibrium; aptamers immobilized at 10 uM in TE buffer, MCH passivation; assay pH and temperature not; details: protein: commercial; chain copies: 3; label: 5' methylene blue; 3' C3 thiol; hairpin
TNF-alpha, sequence (P01375 77-233): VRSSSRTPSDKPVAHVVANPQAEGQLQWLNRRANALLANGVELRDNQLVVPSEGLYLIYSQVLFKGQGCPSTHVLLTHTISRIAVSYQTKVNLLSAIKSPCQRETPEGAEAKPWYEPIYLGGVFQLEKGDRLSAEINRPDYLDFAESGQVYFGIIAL

IL-8 = IL-8 (human, UniProt P10145 28-99); assay: electrochemical aptasensor (SWV); serum; 0-30 ng/ml; Serum as wound-exudate mimic; about 30 min incubation to equilibrium; aptamers immobilized at 10 uM in TE buffer, MCH passivation; assay pH and temperature not; details: protein: commercial; label: 5' C6 thiol; 3' methylene blue; hairpin
IL-8, sequence (P10145 28-99): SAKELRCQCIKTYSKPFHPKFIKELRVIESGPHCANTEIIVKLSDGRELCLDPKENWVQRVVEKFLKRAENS

IL-6 = IL-6 (human, UniProt P05231 30-212); assay: as above; details: protein: commercial; label: 5' C6 thiol; 3' methylene blue; hairpin
IL-6, sequence (P05231 30-212): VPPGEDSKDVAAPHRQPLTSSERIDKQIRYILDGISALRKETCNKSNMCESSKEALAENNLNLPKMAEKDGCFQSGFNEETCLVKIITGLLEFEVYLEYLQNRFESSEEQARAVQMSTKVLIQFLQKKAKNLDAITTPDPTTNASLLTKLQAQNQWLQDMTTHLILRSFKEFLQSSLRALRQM

GGAGUAUCUGAUGACAAUUCGGAGCUCC (structured_RNA, phosphorothioate at all linkages) [TNF-alpha aptamer]
binding result (TNF-alpha): binds

GGGGGCUUAUCAUUCCAUUUAGUGUUAUGAUAACC (structured_RNA, none printed (ribo)) [IL-8 aptamer]
binding result (IL-8): binds

GGTGGCAGGAGGACTATTTATTTGCTTTTCT (structured_DNA) [IL-6 aptamer]
binding result (IL-6): binds
